Tests used:
[1] = molecular target: the molecule itself; assay: cryo-EM structure; purified AtNIT4 filaments (~0.15 mg/ml) in 50 mM Tris-HCl pH 8.0, 100 mM NaCl, blotted at ~10% humidity, 25 °C; helical reconstruction, one helical turn treated as a single particle
[2] = molecular target: the molecule itself; assay: negative-stain electron microscopy with 3D helical reconstruction; purified NIT filaments on carbon-coated copper grids, 2% uranyl acetate; iterative helical real-space reconstruction

Protein	binding result [1]	binding result [2]
Arabidopsis thaliana nitrilase 4 (AtNIT4), wild type (enzyme, UniProt P46011 1-355, looked up, Nitrilase 4 of Arabidopsis thaliana, NP_197622.1, AT5G22300; 355 residues in all, 289 built in the model; Forms open-ended left-handed helical filaments built of dimers, so no fixed number of copies. pET-21b(+) usually adds a C-terminal His6 tag (surmised); also called AtNIT4 wt; source: E. coli BL21-CodonPlus (DE3)-RIL, pET-21b(+), purified (Ni-NTA, SEC)) MSMQQETSHMTAAPQTNGHQIFPEIDMSAGDSSSIVRATVVQASTVFYDTPATLDKAERLLSEAAENGSQLVVFPEAFIGGYPRGSTFELAIGSRTAKGRDDFRKYHASAIDVPGPEVERLALMAKKYKVYLVMGVIEREGYTLYCTVLFFDSQGLFLGKHRKLMPTALERCIWGFGDGSTIPVFDTPIGKIGAAICWENRMPSLRTAMYAKGIEIYCAPTADSRETWLASMTHIALEGGCFVLSANQFCRRKDYPSPPEYMFSGSEESLTPDSVVCAGGSSIISPLGIVLAGPNYRGEALITADLDLGDIARAKFDFDVVGHYSRPEVFSLNIREHPRKAVSFKTSKVMEDESV	binds	
AtNIT4 R95T (enzyme, Arabidopsis thaliana, UniProt P46011 1-355, looked up, Nitrilase 4 of Arabidopsis thaliana, NP_197622.1, with the substitution R95T; Full length is inferred from the parent construct; source: E. coli BL21-CodonPlus (DE3)-RIL, pET-21b(+), purified (Ni-NTA, SEC)) MSMQQETSHMTAAPQTNGHQIFPEIDMSAGDSSSIVRATVVQASTVFYDTPATLDKAERLLSEAAENGSQLVVFPEAFIGGYPRGSTFELAIGSTTAKGRDDFRKYHASAIDVPGPEVERLALMAKKYKVYLVMGVIEREGYTLYCTVLFFDSQGLFLGKHRKLMPTALERCIWGFGDGSTIPVFDTPIGKIGAAICWENRMPSLRTAMYAKGIEIYCAPTADSRETWLASMTHIALEGGCFVLSANQFCRRKDYPSPPEYMFSGSEESLTPDSVVCAGGSSIISPLGIVLAGPNYRGEALITADLDLGDIARAKFDFDVVGHYSRPEVFSLNIREHPRKAVSFKTSKVMEDESV		binds
AtNIT4 R95T L169A S224Q (enzyme, Arabidopsis thaliana, UniProt P46011 1-355, looked up, Nitrilase 4 of Arabidopsis thaliana, NP_197622.1, with three substitutions selected from a site-saturation library made in the vector of the wild type; Selected by directed evolution from the AtNIT4 pET-21b(+) vector; full length is inferred from the parent construct; also called the mutant; NIT4 mutant; source: E. coli BL21-CodonPlus (DE3)-RIL, pET-21b(+), purified (Ni-NTA, SEC)) MSMQQETSHMTAAPQTNGHQIFPEIDMSAGDSSSIVRATVVQASTVFYDTPATLDKAERLLSEAAENGSQLVVFPEAFIGGYPRGSTFELAIGSTTAKGRDDFRKYHASAIDVPGPEVERLALMAKKYKVYLVMGVIEREGYTLYCTVLFFDSQGLFLGKHRKLMPTAAERCIWGFGDGSTIPVFDTPIGKIGAAICWENRMPSLRTAMYAKGIEIYCAPTADQRETWLASMTHIALEGGCFVLSANQFCRRKDYPSPPEYMFSGSEESLTPDSVVCAGGSSIISPLGIVLAGPNYRGEALITADLDLGDIARAKFDFDVVGHYSRPEVFSLNIREHPRKAVSFKTSKVMEDESV		binds

— paper PMC6637149, “Cryo-EM and directed evolution reveal how Arabidopsis nitrilase specificity is influenced by its quaternary structure” (Communications Biology, 2019)
